Measured values from patent publication US20260265404A1 (published 2026).

Tests used:
[1] = target: T1, human full-length CD33 (CD33^FL) (UniProt P20138 18-364); assay: SPR (Carterra); 1 µg/mL
[2] = target: T1, human full-length CD33 (CD33^FL); assay: SPR (Carterra); 4 µg/mL
[3] = target: T1, human full-length CD33 (CD33^FL); assay: SPR (Carterra); hybridoma supernatant
[4] = target: T1, human full-length CD33 (CD33^FL); assay: SPR (Biacore T100)

T1 sequence (P20138 18-364): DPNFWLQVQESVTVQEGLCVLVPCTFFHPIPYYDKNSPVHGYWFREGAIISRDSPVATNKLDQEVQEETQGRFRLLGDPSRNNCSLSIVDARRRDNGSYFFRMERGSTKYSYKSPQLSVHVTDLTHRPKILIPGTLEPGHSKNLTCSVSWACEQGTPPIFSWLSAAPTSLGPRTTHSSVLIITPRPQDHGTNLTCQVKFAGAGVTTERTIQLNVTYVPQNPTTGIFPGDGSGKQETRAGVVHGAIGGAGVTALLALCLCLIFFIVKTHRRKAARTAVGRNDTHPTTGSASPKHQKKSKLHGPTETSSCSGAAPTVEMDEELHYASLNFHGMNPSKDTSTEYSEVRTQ

Binder	Kd [1] [nM]	Kd [2] [nM]	Kd [3] [nM]	Kd [4] [nM]
1E6 antibody (human CD33^PAN antibody clone, hybridoma-derived) (antibody, V domains shown) VH: QVQLVESGGGVVQPGRSLRLSCAASGFTFSSYDIHWVRQAPGKGLEWVAVIWYDGSHNYYSDSVKGRFTISRDNSKNTLYLQMNSLRAEDTAVYYCARDYSGSYYDYWGQGTLVTVSS VL: AIQMTQSPSSLSASVGDRVTITCRASQGIRNDLGWYQQKPGKAPKLLIYAASNLQSGVPSRFSGSGSGTDFTLTISSLQPEDFATYYCLQDYSYPRTFGQGTKVEIK	67	78	69	–
1B9 antibody (human CD33^PAN antibody clone, hybridoma-derived) (antibody, V domains shown) VH: QVQLVESGGGVVQPGRSLRLSCAASGFIFSSYDIHWVRQAPGKGLEWVAVIWYDGSHNYYSDSVKGRFTISRDNSKNTLYLQMNSLRAEDTAVYYCARDYSGSYFDYWGQGTLVTVSS VL: AIQMTQSPSSLSASVGDRVTITCRASQDIRNDLGWYLQRPGKAPKLLIYAASSLQSGVPSRFSGSGSGTDFTLTISSLQPEDFATYYCLQDYSYPRTFGQGTTVEIK	–	–	77	–
1D2 antibody (human CD33^PAN antibody clone, hybridoma-derived) (antibody, V domains shown) VH: QVQLVESGGGVVQPGRSLRLSCAASGFTFSSYDIHWVRQAPGKGLEWVAVIWYDGSQKYYADSVKGRFTISRDNSKNTLYLQMNSLRAEDTAVYYCARDYSGSYYDYWGQGTLVTVSS VL: AIQMTQSPSSLSASVGDRVTITCRASQGIRNDLGWYQQKPGKAPELLIYATSSLQSGVPSRFSGSGSGTDFTLIISSLQPEDFATYYCLQDYSYPRTFGQGTKVEIK	–	–	116	–

More lines, now with the values ahead:

Kd [1] [nM]	Kd [2] [nM]	Kd [3] [nM]	Kd [4] [nM]	Binder
24	40	–	–	1H8 antibody (human CD33V-set antibody clone, hybridoma-derived) (antibody, V domains shown) VH: QVQLVESGGGVVQPGGSLRLSCAASGFTFGSYGMHWVRQAPGKGLEWVAVIWYDGSNEYYADSVKGRFTVSRDNSKHTLYLQMNRLRAEDTAVYYCARDLDYDSSGGDYWGQGILVLVSS VL: EIVLTQSPDFQSVTPKEKVTITCRASQNIGGNLHWYQQKPDQSPKLLIRYATQPFSGVPSRFGGSGSGTDFTLTINSLEAEDAATYYCHQSSSLPLTFGGGTKVEIK
36	130	67	–	1A9 antibody (human CD33^PAN antibody clone, hybridoma-derived) (antibody, V domains shown) VH: EVQLVESGGGLVQPGGSLRLSCAASGFTFSIYDMHWVRQATGKGLEWVSAIGTAGDTYYAGSVKGRFTISRENAKNSLYLQMNSLRAGDTAVYYCAREYSGYYFDYWGQGTLVTVSS VL: AIQMTQSPSSLSASVGDRVTITCRASQDIRNDLGWYQQKPGKAPKILIYGASSLQSGVPSRFSGSGSGTDFTFTISSLQPEDFATYYCLQEYNYPCTFGQGTKLEIK
13	42	112	3.71	1H10 antibody (human CD33^PAN antibody clone, hybridoma-derived) (antibody, V domains shown) VH: QVQLVQSGAEVKKPGASVKVSCKGSGYIFTSYDMHWVRQAPGQGLEWMGIIDPSGGSTSYAQKFQGRVTMTRDTSMSTVYMELSSLRSEDTAVYYCTRDYSWSYFDYWGQGTLVTVSS VL: AIQMTQSPSSLSASVGDRVTITCRASQGIRIYLGWYQQKPGKAPKLLIYATSSLQSGVPSRFSGSGSGTDFTLTISSLQPEDFATYYCLQDYNYPWTFGQGTKVEIK
18	27	–	4.89	2D3 antibody (human CD33V-set antibody clone, hybridoma-derived) (antibody, V domains shown) VH: EVQLLESGGGLVQPGGSLSLSCAASGFTFSIYAMSWVRQAPGKGLEWVSAISDSGGTTYYADSVKGRFTISRDNSKNMLYLEMNSLRAEDTAIYYCAKRTRYFNGMDVWGQGTTVTVSS VL: EIVMTQSPATLSLSPGERATLSCRASQSGSSSFLSWYQQKPGQAPRLLIYGASTRATGIPARFSGSGSGTDFTLTISSLQPEDFAVYYCQQDYNLPFTFGPGTKVDIK
